The text below walks through data of US20210332142A1 (Genentech, published 2021).

One test deals with T1, human Tie2ECD.flag (human, UniProt Q02763 23-748).
T1 construct: also called hTie2.flag; not shown: C-terminal Flag tag
The test can be described thus: Biacore, hIgG captured, 25C. Here is the method:
(§1) Monovalent affinities of selected anti-Tie2 hIgGs were determined using a Biacore T200 instrument (GE Life Sciences). Anti-humanFc was covalently immobilized on a Series S CM5 Biacore sensor chip to enable non-covalent capture of anti-Tie2 antibodies and binding of human or rat Tie2ECD.flag was monitored in real time at 25° C. using a multi-cycle kinetics experiment format. Between cycles, the surface was regenerated with 3 M MgCl₂. Monovalent affinities were determined by kinetic analysis, using Biacore Evaluation Software (GE Life Sciences) to fit a 1:1 binding model to the data.

Another test addresses T2, rat Tie2ECD.flag (rat, UniProt A0ABK0L6J5 19-740).
T2 construct: extracellular domain; also called rTie2.flag; not shown: C-terminal Flag tag
In words: Biacore, hIgG captured, 25C. How it is done: as §1
In general terms: In SPR one partner is held on a chip, and binding of the other changes the refractive index at the surface.

The target of test [1] is T3, mouse Tie2 full extracellular domain fused to mIgG2a Fc (mouse, UniProt Q02858 23-746).
T3 construct: extracellular domain; also called mFull.Fc; not shown: Fc region of mIgG2a, fused at the C-terminus
The test can be described thus: phage ELISA. How it is done:
Clones from the fourth round were screened for Tie2 binding and specificity by ELISA. Screening ELISAs were carried out by coating the wells of a 96-well microtiter plate with Tie2 protein or irrelevant protein at 65 ul per well (1 ug/ml in coating buffer) at 4° C. overnight. In a 96-tube plate, colonies from the fourth round were grown overnight at 37° C. in 400 ul 2YT media with 50 ug/ml carbenicillin and helper phage K07. The plate was spun down at 3000 rpm for 10 min. 30 ul of the culture supernatant was added with 60 ul of ELISA buffer (PBS with 0.5% BSA and 0.05% Tween20) to the Tie2-coated plate and incubated at room temperature for 1 hr. Plates were washed with PBS—0.05% Tween20 and 100 ul/well of horseradish peroxidase (HRP)-conjugated anti-M13 antibody (1/5000 dilution in PBS plus 0.5% BSA and 0.05% Tween20) at room temperature for 30 min (Sidhu et al., supra). The wells were washed with PBS—0.05% Tween20 prior to 100 ul/well of a 1:1 ratio of 3,3′,5,5′-tetramethylbenzidine (TMB) peroxidase substrate and Peroxidase Solution B (H₂O₂) ((Kirkegaard-Perry Laboratories (Gaithersburg, Md.)) being added per well and incubated for 5 min at room temperature. The reaction was stopped by adding 100 ul 1M phosphoric Acid (H₃PO₄) per well and the OD of wells was determined using a standard ELISA plate reader at 450 nm.
On the technique in general: In an ELISA, binding on a coated surface is turned into a signal by an enzyme label.

A further test has as its target T4, omalizumab.
T4 construct: Used as irrelevant coated protein; also called irrelevant Fc-containing protein; not shown: the constant regions
The test can be described thus: phage ELISA.

The target of test [2] is T5, recombinant human Tie2 extracellular domain (human, UniProt Q02763 23-748).
T5 construct: whole entry named; also called Recombinant human Tie2 ECD; hu Tie2
In words: SPR multi-cycle kinetics, IgG captured, kinetic analysis; human Tie2; kinetic analysis. How it is done: (§2) Binding to recombinant human and cyno Tie2 was analyzed using a high performance multi-cycle kinetics format with a contact time of 60 seconds, a dissociation time of 60 seconds, a flow rate of 100 μl/minute and Tie2 concentrations of 5 μM, 2.5 μM, 1.25 μM, 625 nM, 313 nM and 156 nM. Tie2 concentrations of 5 μM, 2.5 μM and 1.25 μM were injected twice. Results were analyzed using Biacore T200 Evaluation Software v3.0 (GE Life Sciences). Results from all three surface densities were analyzed together using the 1:1 Binding model with multiple Rmax and the RI parameter set to zero.

Test [3] has as its target T6, recombinant cyno Tie2 extracellular domain (cynomolgus monkey, UniProt Q02763 23-748 (human entry)).
T6 construct: also called Recombinant cyno Tie2 ECD; cy Tie2
T6 chain: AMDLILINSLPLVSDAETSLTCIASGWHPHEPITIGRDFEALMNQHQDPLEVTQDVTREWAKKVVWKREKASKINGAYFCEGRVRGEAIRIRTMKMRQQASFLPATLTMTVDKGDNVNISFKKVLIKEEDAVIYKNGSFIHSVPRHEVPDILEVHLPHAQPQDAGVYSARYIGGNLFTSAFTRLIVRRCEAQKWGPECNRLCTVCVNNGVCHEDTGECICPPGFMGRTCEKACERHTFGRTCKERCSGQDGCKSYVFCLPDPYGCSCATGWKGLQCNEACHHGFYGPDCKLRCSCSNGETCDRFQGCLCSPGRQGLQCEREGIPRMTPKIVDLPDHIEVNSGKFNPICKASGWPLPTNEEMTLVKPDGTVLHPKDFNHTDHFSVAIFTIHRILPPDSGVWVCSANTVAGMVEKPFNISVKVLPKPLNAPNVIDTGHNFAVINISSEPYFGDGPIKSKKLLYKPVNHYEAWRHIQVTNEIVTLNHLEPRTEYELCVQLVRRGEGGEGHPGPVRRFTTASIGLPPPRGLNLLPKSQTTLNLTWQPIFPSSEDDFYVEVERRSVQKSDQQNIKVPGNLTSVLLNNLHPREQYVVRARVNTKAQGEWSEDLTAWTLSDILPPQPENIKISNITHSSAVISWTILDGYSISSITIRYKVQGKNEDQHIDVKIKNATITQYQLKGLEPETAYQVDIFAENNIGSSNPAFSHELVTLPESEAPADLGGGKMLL
In words: SPR multi-cycle kinetics, IgG captured, kinetic analysis. How it is done: as §2

The target in test [4] is T6, recombinant cyno Tie2 extracellular …. The test can be described thus: SPR, IgG captured, 37C. Here is the method:
(§3) A human antibody capture chip was prepared using a Series S CM5 chip (GE Life Sciences), a human antibody capture kit (GE Life Sciences) and an amine coupling kit (GE Life Sciences). Antibodies diluted to 5 μg/ml in running buffer (10 mM HEPES, 150 mM NaCl, 0.05% Tween 20, 1 mM EDTA, pH 7.4) were non-covalently captured using a contact time of 20 seconds and a flow rate of 10 μl/minute. Binding to 300 nM and 1500 nM recombinant Tie2 was analyzed at 37° C. using a Single Cycle Kinetics method with a contact time of 60 seconds, a dissociation time of 120 seconds and a flow rate of 50 μl/min. Between cycles, the surface was regenerated by a 30 second injection of 3M MgCl₂ at a flow rate of 30 μl/min. Values for antibody capture levels and analyte binding levels were obtained from the Report Point Table (Biacore Evaluation Software v3.0, GE Life Sciences). […] Table 16: Experiment A; Table 17: Experiment B.

Test [5] concerns the target T5, recombinant human Tie2 extracellular …. The test can be described thus: SPR, IgG captured, 37C. How it is done:
as §3
Target sequence in this assay (Q02763 23-748 limits assumed): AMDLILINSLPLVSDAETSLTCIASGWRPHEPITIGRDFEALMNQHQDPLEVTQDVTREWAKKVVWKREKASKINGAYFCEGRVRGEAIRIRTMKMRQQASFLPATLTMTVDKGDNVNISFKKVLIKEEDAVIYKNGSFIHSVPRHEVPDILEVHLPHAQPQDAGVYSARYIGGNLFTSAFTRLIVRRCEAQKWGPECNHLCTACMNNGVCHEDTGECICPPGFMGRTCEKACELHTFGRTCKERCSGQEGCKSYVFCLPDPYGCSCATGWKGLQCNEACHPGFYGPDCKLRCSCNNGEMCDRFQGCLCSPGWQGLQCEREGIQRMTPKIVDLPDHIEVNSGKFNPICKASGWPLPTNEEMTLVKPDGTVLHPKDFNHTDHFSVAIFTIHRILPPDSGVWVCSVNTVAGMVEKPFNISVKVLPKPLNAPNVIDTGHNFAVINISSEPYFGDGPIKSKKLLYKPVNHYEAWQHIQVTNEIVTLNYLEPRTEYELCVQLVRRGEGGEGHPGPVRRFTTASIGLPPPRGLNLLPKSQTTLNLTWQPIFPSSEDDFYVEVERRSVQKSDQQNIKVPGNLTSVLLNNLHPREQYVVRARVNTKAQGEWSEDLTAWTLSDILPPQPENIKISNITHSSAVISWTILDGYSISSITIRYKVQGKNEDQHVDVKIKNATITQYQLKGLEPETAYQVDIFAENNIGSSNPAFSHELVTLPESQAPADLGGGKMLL

Test [6] has as its target T6, recombinant cyno Tie2 extracellular …. In words: SPR, IgG captured, 37C. How it is done: as §3
In test [7] the target is T5, recombinant human Tie2 extracellular …. In words: SPR, IgG captured, 37C. How it is done:
as §3
Target sequence in this assay (Q02763 23-748 limits assumed): as above
This is another data set of the same source.

Test [8] has the same target. The test can be described thus: SPR multi-cycle kinetics, IgG captured, kinetic analysis. How it is done:
Binding to 300 nM and 1500 nM recombinant Tie2 was analyzed at 37° C. using a Single Cycle Kinetics method with a contact time of 60 seconds, a dissociation time of 120 seconds and a flow rate of 50 μl/min. Between cycles, the surface was regenerated by a 30 second injection of 3M MgCl₂ at a flow rate of 30 μl/min. Values for antibody capture levels and analyte binding levels were obtained from the Report Point Table (Biacore Evaluation Software v3.0, GE Life Sciences). […] Table 16: Experiment A; Table 17: Experiment B.
as §2

Test [9] deals with T6, recombinant cyno Tie2 extracellular …. The test can be described thus: SPR, IgG captured, steady state analysis. Here is the method: as §2
In test [10] the target is T5, recombinant human Tie2 extracellular …. In words: SPR, IgG captured, steady state analysis. Here is the method:
as §2

Test [11] concerns the target T6, recombinant cyno Tie2 extracellular …. The test can be described thus: SPR multi-cycle kinetics, IgG captured, kinetic analysis; cyno Tie2; kinetic analysis. How it is done: as §2

Read-outs that look alike come from different tables or passages of the source.

T1 sequence (Q02763 23-748 limits assumed): as above

B1: Tie2.38 (antibody, IgG1, V domains shown)
VH: EVQLVESGGGLVQPGGSLRLSCAASGFTFSNSAIHWVRQAPGKGLEWVASITPYNGYTYYADSVKGRFTISADTSKNTAYLQMNSLRAEDTAVYYCARRQSYSYVMDYWGQGTLVTVSS
VL: DIQMTQSPSSLSASVGDRVTITCRASQDVSTAVAWYQQKPGKAPKLLIYSASFLYSGVPSRFSGSGSGTDFTLTISSLQPEDFATYYCQQSYTTPPTFGQGTKVEIKR
notes: hIgG1 in later assays; also called Ab38
Take B1: the Kd (as a rule, the free concentration of one partner at which half of the binding sites on the other are occupied at equilibrium, for simple one-to-one binding) came to 376 nM in the test with human Tie2ECD.flag and 2200 nM with rat Tie2ECD.flag. Also, the binding result in [1] is “binds”; with omalizumab, “no binding”.

B2: Tie2.33 (antibody, IgG1, V domains shown)
VH: EVQLVESGGGLVQPGGSLRLSCAASGFTFSGSWISWVRQAPGKGLEWVARINPYDGNTYYADSVKGRFTISADTSKNTAYLQMNSLRAEDTAVYYCARNNRFPTWFDYWGQGTLVTVSS
VL: DIQMTQSPSSLSASVGDRVTITCRASQDVSTAVAWYQQKPGKAPKLLIYSASFLYSGVPSRFSGSGSGTDFTLTISSLQPEDFATYYCQQSYTTPPTFGQGTKVEIKR
notes: hIgG1 in later assays; also called Ab33; T2.33
Consider B2, for which the binding result in [1] is reported as “binds”; in the test with omalizumab, “no binding”.

B3: Tie2.1.M100cF (antibody, IgG1, V domains shown)
VH: EVQLVESGGGLVQPGGSLRLSCAASGFTFSNTDISWVRQAPGKGLEWVGRISPSDGNTYYADSVKGRFTISADTSKNTAYLQMNSLRAEDTAVYYCARRTRWASWAFDYWGQGTLVTVSS
VL: DIQMTQSPSSLSASVGDRVTITCRASQDVSTAVAWYQQKPGKAPKLLIYSASFLYSGVPSRFSGSGSGTDFTLTISSLQPEDFATYYCQQSYTTPPTFGQGTKVEIK
notes: hIgG1 in the SPR and binning assays
Regarding B3, the Kd in [2], in [9], in test [10] and in test [11] was 2000 nM each time. In addition, the koff (usually the rate constant with which the complex falls apart) in test [3] amounted to 0.37 s⁻¹; in [8] it was 0.39 s⁻¹. Moreover, the kon (in general, the second-order rate constant of association) in test [3] is 190000 M⁻¹ s⁻¹; in test [8], 220000 M⁻¹ s⁻¹. In addition, the “Normalized Binding Signal, 300 nM” value in test [4] was found to be 0.14; in test [5] it was 0.16; in test [6] it was 0.12; in test [7] it was 0.14. Moreover, the “Normalized Binding Signal, 1500 nM” value in [4] is 0.46; in [5] it was 0.48; in [6] it was 0.42; in test [7], 0.44.
